# T1: Nectin-like-4 (UniProt Q8NFZ8 21-324, limits assumed)
# T1 construct: Bought recombinant protein; also called CADM4; IgSF4C
# T1 sequence (looked up): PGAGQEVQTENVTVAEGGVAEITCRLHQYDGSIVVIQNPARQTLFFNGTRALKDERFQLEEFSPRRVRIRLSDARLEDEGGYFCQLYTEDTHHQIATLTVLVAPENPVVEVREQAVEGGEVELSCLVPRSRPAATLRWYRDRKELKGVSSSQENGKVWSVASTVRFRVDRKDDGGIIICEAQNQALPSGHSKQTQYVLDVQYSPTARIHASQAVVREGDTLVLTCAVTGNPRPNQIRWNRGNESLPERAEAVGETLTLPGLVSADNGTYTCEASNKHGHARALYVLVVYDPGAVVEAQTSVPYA
# T2: Nectin-1 (UniProt Q15223 31-334, limits assumed)
# T2 construct: Bought recombinant protein; also called CD111; PVRL-1
# T2 sequence (looked up): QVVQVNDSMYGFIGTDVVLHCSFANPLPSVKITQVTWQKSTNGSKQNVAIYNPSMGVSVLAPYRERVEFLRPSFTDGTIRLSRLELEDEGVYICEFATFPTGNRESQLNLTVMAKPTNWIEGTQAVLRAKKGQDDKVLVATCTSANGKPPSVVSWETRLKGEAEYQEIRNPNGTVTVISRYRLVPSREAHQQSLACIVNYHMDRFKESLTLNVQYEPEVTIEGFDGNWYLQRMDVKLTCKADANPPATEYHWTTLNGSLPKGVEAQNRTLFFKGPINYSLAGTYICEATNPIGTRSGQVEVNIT
# T3: Nectin-like-1 (UniProt Q8N126 25-330, limits assumed)
# T3 construct: Bought recombinant protein; also called CADM3; IgSF4B
# T3 sequence (looked up): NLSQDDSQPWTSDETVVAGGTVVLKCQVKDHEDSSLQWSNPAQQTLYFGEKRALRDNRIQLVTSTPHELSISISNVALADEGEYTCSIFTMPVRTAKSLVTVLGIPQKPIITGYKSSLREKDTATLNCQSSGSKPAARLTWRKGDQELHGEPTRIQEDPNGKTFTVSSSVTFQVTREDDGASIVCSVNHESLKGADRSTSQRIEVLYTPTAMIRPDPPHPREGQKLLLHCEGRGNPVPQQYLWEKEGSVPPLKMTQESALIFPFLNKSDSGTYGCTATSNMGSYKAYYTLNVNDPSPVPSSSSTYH
# T4: Nectin-like-3 (UniProt Q8N3J6 25-367, limits assumed)
# T4 construct: Bought recombinant protein; also called CADM2; IgSF4D
# T4 sequence (looked up): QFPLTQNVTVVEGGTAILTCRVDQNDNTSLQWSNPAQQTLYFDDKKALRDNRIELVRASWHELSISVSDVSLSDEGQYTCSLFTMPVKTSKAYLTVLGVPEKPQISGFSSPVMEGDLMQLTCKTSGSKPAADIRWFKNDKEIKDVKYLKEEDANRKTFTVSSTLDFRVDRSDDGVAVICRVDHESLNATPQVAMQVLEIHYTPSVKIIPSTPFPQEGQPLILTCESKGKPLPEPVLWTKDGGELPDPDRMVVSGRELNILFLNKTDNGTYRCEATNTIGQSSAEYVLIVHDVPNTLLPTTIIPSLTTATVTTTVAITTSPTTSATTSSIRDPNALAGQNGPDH
# T5: Nectin-like-5 (UniProt P15151 21-343)
# T5 construct: Bought recombinant protein; also called CD155; PVR
# T5 sequence (looked up): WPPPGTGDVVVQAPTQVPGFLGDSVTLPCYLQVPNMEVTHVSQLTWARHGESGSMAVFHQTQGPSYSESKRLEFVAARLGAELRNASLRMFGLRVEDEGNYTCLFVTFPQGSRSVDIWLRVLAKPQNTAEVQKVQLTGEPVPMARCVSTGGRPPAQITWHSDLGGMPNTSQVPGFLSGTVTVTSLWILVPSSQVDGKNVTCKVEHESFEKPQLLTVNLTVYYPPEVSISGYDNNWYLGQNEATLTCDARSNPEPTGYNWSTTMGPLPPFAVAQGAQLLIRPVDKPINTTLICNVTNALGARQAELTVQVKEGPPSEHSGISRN
# T6: Nectin-2 (UniProt Q92692 32-360, limits assumed)
# T6 construct: Bought recombinant protein; also called CD112; PVRL-2
# T6 sequence (looked up): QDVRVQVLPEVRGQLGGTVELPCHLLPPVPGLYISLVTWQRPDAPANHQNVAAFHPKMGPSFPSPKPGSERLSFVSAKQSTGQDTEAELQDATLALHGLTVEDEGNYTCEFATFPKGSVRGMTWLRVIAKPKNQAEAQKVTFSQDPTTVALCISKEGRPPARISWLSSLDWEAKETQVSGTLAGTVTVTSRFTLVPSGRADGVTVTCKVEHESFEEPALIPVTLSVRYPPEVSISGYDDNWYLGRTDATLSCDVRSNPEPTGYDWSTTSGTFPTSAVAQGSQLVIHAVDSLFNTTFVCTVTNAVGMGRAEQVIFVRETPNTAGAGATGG
# Legend:
# [1] = molecular target: T1, Nectin-like-4; assay: ELISA, coated antigen, antibody at 100 ng/ml
# Protocol: (§1) Coating: Nectin-1, Nectin-2, Nectin-3, Nectin-4, Nectin-like-1, Nectin-like-2, Nectin-like-3, Nectin-like-4, and Nectin-like-5 were diluted to 5 μg/ml in coating buffer (carbonate buffer, pH 9.6) respectively. A 96-well plate was coat with 100 μl per well and incubated overnight at 2-8° C.;
# (§2) Sample loading: The plate was taken out, patted dry, and washed twice with 200 μl/well of PBST, then patted dry. The Nectin-4 antibodies prepared in Example 1 (antibody MM11, antibody R012, and antibody R036) were diluted with 1% BSA/PBST to concentrations of 10 μg/ml, 1 μg/ml, 100 ng/ml, and 10 ng/ml, respectively. 1% BSA/PBST solution for dilution was set as a blank control. 100 μl per well was added to the 96-well plate, and incubated at room temperature for 2 hours;
# (§3) Reaction termination and plate reading: 100 μl/well of 1 mol/L H3PO4 was added to terminate the reaction and the plated was read. The absorbances of wells in the plate at 450 nm with 650 nm as reference wavelength were read and recorded as OD_{450 nm-650 nm}.
# [2] = molecular target: T2, Nectin-1; assay: ELISA, coated antigen, antibody at 100 ng/ml
# Protocol: as §1, §2, §3
# [3] = molecular target: T3, Nectin-like-1; assay: ELISA, coated antigen, antibody at 100 ng/ml
# Protocol: as §1, §2, §3
# [4] = molecular target: T4, Nectin-like-3; assay: ELISA, coated antigen, antibody at 1000 ng/ml
# Protocol: as §1, §2, §3
# [5] = molecular target: T1, Nectin-like-4; assay: ELISA, coated antigen, antibody at 1000 ng/ml
# Protocol: as §1, §2, §3
# [6] = molecular target: T5, Nectin-like-5; assay: ELISA, coated antigen, antibody at 1000 ng/ml
# Protocol: as §1, §2, §3
# [7] = molecular target: T6, Nectin-2; assay: ELISA, coated antigen, antibody at 1000 ng/ml
# Protocol: as §1, §2, §3
# [8] = molecular target: T3, Nectin-like-1; assay: ELISA, coated antigen, antibody at 1000 ng/ml
# Protocol: as §1, §2, §3
Binder,OD detection value [1],OD detection value [2],OD detection value [3],OD detection value [4],OD detection value [5],OD detection value [6],OD detection value [7],OD detection value [8]
"Antibody MM11 (antibody, mouse IgG1, kappa, V domains shown, Mouse monoclonal antibody from hybridoma; also called Nectin-4 mouse monoclonal antibody MM11; mouse antibody MM11) VH: DVQLQESGPGLVKPSQSLSLTCSVTGYSITSNFYWNWIRQFPGNRLEWMGYISYDGSNNYNPSLKNRISISRDTSKNQFFLKLNSVTTEDTATYYCVRADYWGQGTLVTVSA VL: DTVMTQTPLSLPVSLGDQASISCRSSQSLESSDGHAYLNWYLQKPGQSPQLLIYRVSNRFSGVLHRFSGSGSGTDFTLKISRVEAEDLGVYFCLQFTHVPFTFGSGTKLEIKR",0.007 OD450 nm-650 nm,0.008 OD450 nm-650 nm,0.01 OD450 nm-650 nm,0.029 OD450 nm-650 nm,0.01 OD450 nm-650 nm,0.008 OD450 nm-650 nm,0.008 OD450 nm-650 nm,0.008 OD450 nm-650 nm
"Antibody R012 (antibody, V domains shown, Rabbit monoclonal antibody from phage display; also called Nectin-4 rabbit monoclonal antibody R012; rabbit antibody R012) VH: SKSVEESGGRLVTPGTPLTLTCTVSGFSLSTYAMSWVRQAPGKGLEYIGIISGRGTTYYASWLKGRFTISKTSTTVDLKITSPTTEDTATYFCARDAGISDVYTGYFNLWGQGTLVTVSS VL: QPVLAQLPSASAALGASAKLTCTLSSAHRTYTIAWYQQQQGEAPRYLMMLKSDGSYTKGTGVPDRFSGSSSGADRYLIISSVQAADEADYYCGADDSGGYVFGGGTQLTVTG",0.008 OD450 nm-650 nm,0.007 OD450 nm-650 nm,0.008 OD450 nm-650 nm,0.008 OD450 nm-650 nm,0.007 OD450 nm-650 nm,0.008 OD450 nm-650 nm,0.007 OD450 nm-650 nm,0.01 OD450 nm-650 nm
"Antibody R036 (antibody, V domains shown, Rabbit monoclonal antibody from phage display; also called Nectin-4 rabbit monoclonal antibody R036; rabbit antibody R036) VH: SQSVEESGGRLVTPGTPLTLTCTVSGFSLSSYAMSWVRQAPGKGLEYIGIIGGRGTTYYAIWAKGRFTISKTSTTVDLKITSPTTEDTATYFCARDAGTTYVGTTYVATGYFNLWGQGTLVTVSS VL: QPVLTQPPSASAALGASAKLTCTLSSAHKTYTIAWYQQQQGEAPRYLMILKSDGSYTRGTGVPDRFSGSSSGADRYLIISSVQADDEADYYCGADDSGGYVFGGGTQLTVTG",0.007 OD450 nm-650 nm,0.007 OD450 nm-650 nm,0.007 OD450 nm-650 nm,0.007 OD450 nm-650 nm,0.007 OD450 nm-650 nm,0.009 OD450 nm-650 nm,0.007 OD450 nm-650 nm,0.007 OD450 nm-650 nm

# Reference: patent US20260265354A1 (JIANGSU MABWELL HEALTH PHARMACEUTICAL R AND D, published 2026)
